{"source": "the supplement of paper PMC11316812", "key": {"hTERT-HMEC": {"tested_on": "hTERT-HMEC", "experiment": "percentage of EdU-negative (G0-arrested) nuclei per well, 72 h; higher = more G0 arrest", "details": "reference: sequence is the full UniProt precursor, the tested protein was the secreted form or ectodomain"}, "MCF7": {"tested_on": "MCF7", "experiment": "percentage of EdU-negative (G0-arrested) nuclei per well, 72 h; higher = more G0 arrest", "details": "reference: sequence is the full UniProt precursor, the tested protein was the secreted form or ectodomain"}, "[1]": {"details": "protein concentration 0.00914286 µM"}, "[2]": {"details": "protein concentration 0.0914286 µM"}, "[3]": {"details": "protein concentration 0.0292375 µM"}, "[4]": {"details": "protein concentration 0.292375 µM"}, "[5]": {"details": "protein concentration 0.0225 µM"}, "[6]": {"details": "protein concentration 0.022125 µM"}, "[7]": {"details": "protein concentration 0.22125 µM"}}, "note": "± gives the standard deviation of the averaged measurements.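 Also: secreted proteins added to cultured cells, EdU pulse at the end, nuclei found by Hoechst imaging, EdU status from nuclear versus surrounding ring intensity ratio, PBS as neutral control.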"}
{"sequence": "MDLWNLSWFLFLDALLVISGLATPENFDVDGGMDQDIFDINEGLGLDLFEGDIRLDRAQIRNSIIGEKYRWPHTIPYVLEDSLEMNAKGVILNAFERYRLKTCIDFKPWAGETNYISVFKGSGCWSSVGNRRVGKQELSIGANCDRIATVQHEFLHALGFWHEQSRSDRDDYVRIMWDRILSGREHNFNTYSDDISDSLNVPYDYTSVMHYSKTAFQNGTEPTIVTRISDFEDVIGQRMDFSDSDLLKLNQLYNCSSSLSFMDSCSFELENVCGMIQSSGDNADWQRVSQVPRGPESDHSNMGQCQGSGFFMHFDSSSVNVGATAVLESRTLYPKRGFQCLQFYLYNSGSESDQLNIYIREYSADNVDGNLTLVEEIKEIPTGSWQLYHVTLKVTKKFRVVFEGRKGSGASLGGLSIDDINLSETRCPHHIWHIRNFTQFIGSPNGTLYSPPFYSSKGYAFQIYLNLAHVTNAGIYFHLISGANDDQLQWPCPWQQATMTLLDQNPDIRQRMSNQRSITTDPFMTTDNGNYFWDRPSKVGTVALFSNGTQFRRGGGYGTSAFITHERLKSRDFIKGDDVYILLTVEDISHLNSTQIQLTPAPSVQDLCSKTTCKNDGVCTVRDGKAECRCQSGEDWWYMGERCEKRGSTRDTIVIAVSSTVAVFALMLIITLVSVYCTRKKYRERMSSNRPNLTPQNQHAF", "values": [{"measurement": "percentage of EdU-negative", "setting": "hTERT-HMEC; [1]", "result": "6.01 ± 0.12", "unit": "%"}, {"measurement": "percentage of EdU-negative", "setting": "hTERT-HMEC; [2]", "result": "6.74 ± 0.94", "unit": "%"}, {"measurement": "percentage of EdU-negative", "setting": "MCF7; [1]", "result": "24.7 ± 3.1", "unit": "%"}, {"measurement": "percentage of EdU-negative", "setting": "MCF7; [2]", "result": "27.5 ± 1.1", "unit": "%"}]}
{"sequence": "MDLWQLLLTLALAGSSDAFSGSEATAAILSRAPWSLQSVNPGLKTNSSKEPKFTKCRSPERETFSCHWTDEVHHGTKNLGPIQLFYTRRNTQEWTQEWKECPDYVSAGENSCYFNSSFTSIWIPYCIKLTSNGGTVDEKCFSVDEIVQPDPPIALNWTLLNVSLTGIHADIQVRWEAPRNADIQKGWMVLEYELQYKEVNETKWKMMDPILTTSVPVYSLKVDKEYEVRVRSKQRNSGNYGEFSEVLYVTLPQMSQFTCEEDFYFPWLLIIIFGIFGLTVMLFVFLFSKQQRIKMLILPPVPVPKIKGIDPDLLKEGKLEEVNTILAIHDSYKPEFHSDDSWVEFIELDIDEPDEKTEESDTDRLLSSDHEKSHSNLGVKDGDSGRTSCCEPDILETDFNANDIHEGTSEVAQPQRLKGEADLLCLDQKNQNNSPYHDACPATQQPSVIQAEKNKPQPLPTEGAESTHQAAHIQLSNPSSLSNIDFYAQVSDITPAGSVVLSPGQKNKAGMSQCDMHPEMVSLCQENFLMDNAYFCEADAKKCIPVAPHIKVESHIQPSLNQEDIYITTESLTTAAGRPGTGEHVPGSEMPVPDYTSIHIVQSPQGLILNATALPLPDKEFLSSCGYVSTDQLNKIMP", "values": [{"measurement": "percentage of EdU-negative", "setting": "hTERT-HMEC; [3]", "result": "4.42 ± 0.8", "unit": "%"}, {"measurement": "percentage of EdU-negative", "setting": "hTERT-HMEC; [4]", "result": "6.44 ± 1.3", "unit": "%"}, {"measurement": "percentage of EdU-negative", "setting": "MCF7; [3]", "result": "25 ± 3.3", "unit": "%"}, {"measurement": "percentage of EdU-negative", "setting": "MCF7; [4]", "result": "24.5 ± 1.6", "unit": "%"}]}
{"sequence": "MDMAWQMMQLLLLALVTAAGSAQPRSARARTDLLNVCMNAKHHKTQPSPEDELYGQCSPWKKNACCTASTSQELHKDTSRLYNFNWDHCGKMEPTCKRHFIQDSCLYECSPNLGPWIRQVNQSWRKERILNVPLCKEDCERWWEDCRTSYTCKSNWHKGWNWTSGINECPAGALCSTFESYFPTPAALCEGLWSHSFKVSNYSRGSGRCIQMWFDSAQGNPNEEVAKFYAAAMNAGAPSRGIIDS [A0A087WXL1]", "values": [{"measurement": "percentage of EdU-negative", "setting": "hTERT-HMEC; [5]", "result": "5.28 ± 0.77", "unit": "%"}, {"measurement": "percentage of EdU-negative", "setting": "hTERT-HMEC; protein concentration 0.225 µM", "result": "4.93 ± 0.46", "unit": "%"}, {"measurement": "percentage of EdU-negative", "setting": "MCF7; [5]", "result": "25.4 ± 0.5", "unit": "%"}, {"measurement": "percentage of EdU-negative", "setting": "MCF7; protein concentration 0.225 µM", "result": "24 ± 1.3", "unit": "%"}]}
{"sequence": "MDMWTALLILQALLLPSLADGATPALRFVAVGDWGGVPNAPFHTAREMANAKEIARTVQILGADFILSLGDNFYFTGVQDINDKRFQETFEDVFSDRSLRKVPWYVLAGNHDHLGNVSAQIAYSKISKRWNFPSPFYRLHFKIPQTNVSVAIFMLDTVTLCGNSDDFLSQQPERPRDVKLARTQLSWLKKQLAAAREDYVLVAGHYPVWSIAEHGPTHCLVKQLRPLLATYGVTAYLCGHDHNLQYLQDENGVGYVLSGAGNFMDPSKRHQRKVPNGYLRFHYGTEDSLGGFAYVEISSKEMTVTYIEASGKSLFKTRLPRRARP", "values": [{"measurement": "percentage of EdU-negative", "setting": "hTERT-HMEC; [6]", "result": "4.67 ± 0.33", "unit": "%"}, {"measurement": "percentage of EdU-negative", "setting": "hTERT-HMEC; [7]", "result": "8.42 ± 0.15", "unit": "%"}, {"measurement": "percentage of EdU-negative", "setting": "MCF7; [6]", "result": "24.4 ± 1.2", "unit": "%"}, {"measurement": "percentage of EdU-negative", "setting": "MCF7; [7]", "result": "28.4 ± 1.4", "unit": "%"}]}
{"sequence": "MDPGLQQALNGMAPPGDTAMHVPAGSVASHLGTTSRSYFYLTTATLALCLVFTVATIMVLVVQRTDSIPNSPDNVPLKGGNCSEDLLCILKRAPFKKSWAYLQVAKHLNKTKLSWNKDGILHGVRYQDGNLVIQFPGLYFIICQLQFLVQCPNNSVDLKLELLINKHIKKQALVTVCESGMQTKHVYQNLSQFLLDYLQVNTTISVNVDTFQYIDTSTFPLENVLSIFLYSNSD", "values": [{"measurement": "percentage of EdU-negative", "setting": "hTERT-HMEC; [5]", "result": "4.46 ± 0.73", "unit": "%"}, {"measurement": "percentage of EdU-negative", "setting": "hTERT-HMEC; protein concentration 0.225 µM", "result": "6.03 ± 0.4", "unit": "%"}, {"measurement": "percentage of EdU-negative", "setting": "MCF7; [5]", "result": "28 ± 0.99", "unit": "%"}, {"measurement": "percentage of EdU-negative", "setting": "MCF7; protein concentration 0.225 µM", "result": "27.5 ± 1.8", "unit": "%"}]}
